The text below walks through data of patent US20120003296A1, “NEW METHODS OF TREATING DRY EYE SYNDROME” (priority 2010, published 2012).

The conditions of data set [1]: in vivo; cited from earlier work.
The subject of data set [2] is dry eye. To be noted: 2% suspension, versus baseline; cited from earlier work.
For data set [3], the system named is dry eye syndrome. Briefly: MSM mixed with insulin as eye drops. The format is in vivo. To be noted: aqueous MSM mixed with insulin, chemotherapy, allergic eyes, contact lens wearers. From the text:
Methylsulfonylmethane (MSM), is an organosulfur compound with the formula (CH3)2SO2, a metabolite of DMSO. It is also known by several other names: DMSO2, MSM, Methylsulfonylmethane, methyl sulfone, and dimethyl sulfone. It is marketed as dietary supplement and also used for osteoarthritis, allergic rhinitis, interstitial cystitis, and throat spray for snoring. Stanley W. Jacob, M.D., of the Oregon Health and Science University, reports using MSM to treat over 18,000 patients with a assortment of ailments (MSM the Definitive Guide: The Nutritional Breakthrough for Arthritis, Allergies and More. Freedom Press. 2003. ISBN 9781893910225. http://www.amazon.com/MSM-Definitive-Guide-Nutritional-Breakthrough/dp/1893910229). It is soluble in water, and a good solvent like DMSO. We have used aqueous solutions of MSM, filtered and sterilized and mixed with insulin and used as eye drops to treat dry eye syndrome during chemotherapy, allergic conditions of the eyes and contact lens wearers with good results.

Data set [4] concerns dry eye syndrome. Briefly: Therapeutic activity against dry eye syndrome. The format is in vivo. To be noted: incl. KCS, Sjogren's syndrome, MGD. From the text:
Also, the terminology used herein is for the purpose of description and not of limitation.

Data set [5] has as its system scleroderma and systemic lupus erythematosus. To be noted: with insulin.
Data set [6] concerns MCF-7 human breast cancer cells. The settings on record: in vitro, MCF-7 cells, methotrexate in presence of insulin; cited from earlier work.
The test system of the next data set is pain. The experiment in a line: Trigger point and joint injection of local anesthetic with insulin. To be noted: local anesthetic with insulin versus injectate without insulin. The format is in vivo. From the text:
Trigger points or trigger sites are described as hyperirritable spots in skeletal muscle that are associated with palpable nodules in taut bands of muscle fibers whose compression may elicit local tenderness, referred pain, or local twitch response. There are many therapies to take away the tenderness and sore spots.

The conditions of data set [7]: local application incl. conjunctival sac, scalp, gums, mucosa, wounds. An excerpt:
The present invention formulation contains only 0.05 IU per drop which can be increased in severe disease states.

Another data set deals with musculoskeletal pain. The experiment in a line: Prolotherapy injectate with insulin. The settings on record: with insulin versus prolotherapy agent alone. The format is in vivo. From the text:
The inventors have used glucose along with insulin and lidocaine in our prolotherapy injectate for various musculoskeletal pain, including arthritis, back pain, neck pain, fibromyalgia, sports injuries, unresolved whiplash injuries, carpal tunnel syndrome, chronic tendonitis, partially torn tendons, ligaments and cartilage, degenerated or herniated discs, TMJ pain and sciatica. It is important to note the principle of prolotherapy is to induce fibroblasts to multiply and lay more ligaments (collagen); make the ligaments and tendons stronger inducing sterile inflammation at the site. Insulin can enhance the multiplication of fibroblasts by these prolotherapy and other sterile inflammatory therapeutic agents to make ligaments stronger. […] Insulin increased the fibroblast mitosis and thus increased production of collage to strengthen the ligaments of the painful joint giving long lasting fast pain relief with stronger functional joints. When insulin is therapeutically effective ever in taking away the pain by various prolotherapy therapeutic agents, one can see how effective it is in treating the dry eye syndrome and associated diseases of the eye.

Data set [8] is described as follows: Local insulin on ulcers and tooth extraction wounds. The format is in vivo. To be noted: insulin soaked cotton swabs, 1-3 units in normal saline. An excerpt: (§1) The present inventors have used insulin for more than a decade to enhance the effectiveness of locally injected therapeutic agents especially cancers with chemotherapeutic agents with remarkable results. […] It stimulated the fibroblast, endothelial cell, angiogenesis and skin cell growth resulting accelerated wound healing.

A further data set deals with indolent ulcers. Described as above. The format is in vivo. To be noted: insulin spray, anywhere in the body incl. oral and nasal cavity.
Excerpt: as §1

The test system of data set [9] is advanced and localized cancers. The experiment in a line: Insulin followed by chemotherapeutic agents injected into cancer masses. The format is in vivo. To be noted: insulin followed by anticancer chemotherapeutic agents, direct injection. From the text: Our study of injecting Insulin followed by anticancer chemotherapeutic agents directly into cancer masses on hundreds of advanced and localized cancers supports these finding also. […] We treated multiple brain cancer patients by directly injecting insulin with mannitol followed by with specific anti tumor Chemo-therapeutic agents with dextrose and heparin directly infused into the internal carotid artery with positive results. Patients lived longer with good quality of life with less side effects to the chemotherapy agents.

In a further data set the test system is Wurzburg cells. To be noted: cited from earlier work.
Data set [10] concerns dry mouth and dry eyes conditions. Briefly: ADT (Sialor) orally and/or as eye drops in dry mouth and dry eyes. To be noted: 25 mg orally and/or ophthalmic drops; chemotherapy patients, menopausal women, chronic smokers. The format is in vivo. On the procedure: Another drug available is an organo sulfur compound, anethole dithiolethione (ADT, 5-[p-methoxyphenyl]-3H-1,2-dithiol-3-thione, trade name Sialor™) with hardly any side effects. It stimulates the secretion of saliva in patients with autoimmune exocrinopathy (e.g. Sjogren's syndrome). Sialor alleviates the symptoms of xerostomia and xeroophthalmia. We have used Sialor, 25 mg orally and/or ophthalmic drops with successes in these conditions especially those on chemotherapy, menopausal women, and chronic smokers with dry mouth and dry eyes conditions. ADT increases the glutathione synthesis by activating gamma-glutamyl-cysteine synthetase. ADT reduced both polymorphonuclear neutrophils adhesion to ROS (reactive oxygen species—can be effective in post perfusion adhesion of white blood cells to ROS with resultant damage) and stimulated tyrosine phosphorylation.
Another drug available to treat KCS is a organo sulfur compound, anethole dithiolethione (ADT—trade name Sialor) with hardly any side effects. It stimulates the secretion of saliva, in patients with autoimmune exocrinopathy (Sjogren's syndrome). Sialor alleviates the symptoms of xerostomia and xeroophthalmia. […]

The conditions of data set [11]: relative to testosterone; cited from earlier work.
The subject of data set [12] is dry eye. To be noted: ophthalmic drops, compared to artificial tears or testosterone; cited from earlier work.

Turning to Insulin detemir, in data set [1], the “Effective duration of action” value is reported as 14 h, the “Maximum duration” value is around 20 h, the “Onset of Action” value is 3 to 4 h and the “Peak action in hours” value is 6 to 8 h.
For `O=C(NC(Cc1cc(=O)[nH]c2ccccc12)C(=O)O)c1ccc(Cl)cc1` (stereo not drawn) [Rebamipide], in the data set with dry eye [2], the fluorescein corneal staining result is recorded as “decreased from baseline”; the “subjective parameters such as gritty/sandy sensation and burning/pain” value is listed as “decreased from baseline”.
In the case of Insulin glulisine, the “Onset of Action in hours” value in data set [1] is “¼-½”.
Insulin glargine: in data set [1], the “Effective duration of action” value is 18 to 20 h, the “Maximum duration” value was 20 to 24 h, the “Onset of Action” value was 3 to 4 h and the “Peak action in hours” value is 8 to 16 h.
Take `CS(C)(=O)=O` [MSM, Methylsulfonylmethane]: in the data set with dry eye syndrome [3], the “treatment outcome in dry eye syndrome” value is recorded as “good results”.
Regarding “IGF-1: Insulin-like Growth factor (IGF-1), which has insulin like effects”, the “therapeutic activity against dry eye syndrome” value in the data set on dry eye syndrome [4] is “high therapeutic activity”.
Take `O=P1(N(CCCl)CCCl)NCCCO1` (stereo not drawn) [cyclophosphamide, Cyclophosphamide]: the “treatment outcome in scleroderma and systemic lupus erythematosus” value in data set [5] is listed as “very successfully”.
With Insulin lispro, the “Onset of Action in hours” value in data set [1] is on record as “¼-½”.
On to insulin, for which the “increase of the cytotoxic effect of methotrexate” value in data set [6] is “up to 10,000 fold”. The relief of pain entry in the data set on pain is “rapid and effective relief of pain”. Besides, the “blood sugar levels (hypoglycemic effects)” value in data set [7] is listed as “did not change the blood sugar levels”. Further, the “therapeutic activity against dry eye syndrome” value with dry eye syndrome [4] was “high therapeutic activity”. The effectiveness of prolotherapy entry with musculoskeletal pain is reported as “more effective”. For the same molecule, the “healing after teeth extraction” value in data set [8] was “rapid healing with reduced pain”. Moreover, in the data set with indolent ulcers, the “healing of indolent ulcers” value was “augmented the healing”. Further, the “palpable tumors including enlarged lymph nodes” value in data set [9] is “literally melted away”.
Regarding “NPH (isophane): intermediate-acting insulin”, in [1], the “Effective duration of action” value was 10 to 16 h, the “Maximum duration” value was 14 to 18 h, the “Onset of Action” value is 2 to 4 h and the “Peak action in hours” value is 6 to 10 h.
With Regular (soluble): short-acting insulin, in data set [1], the “Effective duration of action” value is 3 to 6 h, the “Maximum duration” value is 6 to 8 h and the “Peak action in hours” value was 2 to 3 h.
On to `COc1ccc(-c2cc(=S)ss2)cc1` [ADT, 5-[p-methoxyphenyl]-3H-1,2-dithiol-3-thione], for which, in the data set with Wurzburg cells (ADT pretreatment of Wurzburg cells), the “H2O2 induced lipid peroxidation” value is listed as “remarkably inhibited”. In the data set on Wurzburg cells (compared with untreated Wurzburg cells), the glutathione levels entry is on record as “rises glutathione levels significantly”. Also, in [10], the “treatment outcome in dry mouth and dry eyes conditions” value is recorded as “successes”.
In the case of Insulin aspart, the “Onset of Action in hours” value in [1] is on record as “¼-½”.
With `C[C@]12CC[C@H](O)CC1=CC[C@@H]1[C@@H]2CC[C@]2(C)C(=O)CC[C@@H]12` [DHEA, dehydroepiandrosterone], the “androgenic activity of testosterone” value in data set [11] is 5%. Also, the subjective patient response entry in the data set on dry eye [12] is reported as “felt better”.
